The data set “SEC-MALS” deals with the molecule itself. Kind of data set: SEC-MALS. (In general: SEC sorts molecules by how far they enter the pores of the column.)
For a further data set, the target named is T1, G5_(845-1508)-R1016C-TAP (human, UniProt Q8TEQ6 845-1508, R1016C).
T1 sequence (looked up): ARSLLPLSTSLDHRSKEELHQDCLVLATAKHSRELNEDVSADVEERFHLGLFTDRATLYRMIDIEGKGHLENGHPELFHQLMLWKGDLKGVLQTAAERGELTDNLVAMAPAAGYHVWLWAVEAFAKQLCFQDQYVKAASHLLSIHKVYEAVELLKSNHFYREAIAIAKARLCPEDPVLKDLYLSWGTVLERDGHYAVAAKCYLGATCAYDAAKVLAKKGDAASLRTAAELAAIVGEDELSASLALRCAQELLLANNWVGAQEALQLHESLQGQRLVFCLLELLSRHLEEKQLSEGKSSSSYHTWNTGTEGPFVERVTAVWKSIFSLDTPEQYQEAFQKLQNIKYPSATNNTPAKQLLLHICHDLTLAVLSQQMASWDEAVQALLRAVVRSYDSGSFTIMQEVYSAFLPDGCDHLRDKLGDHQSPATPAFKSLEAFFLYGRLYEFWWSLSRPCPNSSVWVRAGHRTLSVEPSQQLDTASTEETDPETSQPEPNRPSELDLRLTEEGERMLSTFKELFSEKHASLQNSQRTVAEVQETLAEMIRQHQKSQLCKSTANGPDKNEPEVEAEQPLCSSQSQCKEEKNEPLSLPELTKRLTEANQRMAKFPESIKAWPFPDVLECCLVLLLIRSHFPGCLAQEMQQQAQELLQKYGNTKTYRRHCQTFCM
The data set can be described thus: co-IP.

The target of a further data set is T2, G5_(845-1508)-D1019E-TAP (human, UniProt Q8TEQ6 845-1508, D1019E).
T2 sequence (looked up): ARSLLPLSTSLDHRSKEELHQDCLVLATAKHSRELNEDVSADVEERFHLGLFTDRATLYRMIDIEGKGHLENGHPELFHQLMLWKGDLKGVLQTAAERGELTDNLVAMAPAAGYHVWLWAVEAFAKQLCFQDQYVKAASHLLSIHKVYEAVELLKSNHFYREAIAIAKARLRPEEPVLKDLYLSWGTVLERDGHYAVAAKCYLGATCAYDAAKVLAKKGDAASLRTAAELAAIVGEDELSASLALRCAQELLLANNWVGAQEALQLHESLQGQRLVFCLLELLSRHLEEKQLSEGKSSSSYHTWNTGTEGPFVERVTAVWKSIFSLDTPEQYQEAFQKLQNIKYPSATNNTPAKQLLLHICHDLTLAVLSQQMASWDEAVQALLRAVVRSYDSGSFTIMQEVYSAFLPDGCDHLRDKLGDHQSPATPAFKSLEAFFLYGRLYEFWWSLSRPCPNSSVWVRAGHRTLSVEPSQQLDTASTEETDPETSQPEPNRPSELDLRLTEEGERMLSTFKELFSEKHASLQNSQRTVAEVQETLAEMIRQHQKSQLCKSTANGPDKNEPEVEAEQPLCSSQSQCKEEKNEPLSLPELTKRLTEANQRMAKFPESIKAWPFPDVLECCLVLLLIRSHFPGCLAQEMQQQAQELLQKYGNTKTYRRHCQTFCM
Kind of data set: co-IP.

Data set [1] has as its target T3, G5_(845-1508)-A951E-TAP (human), Q8TEQ6.
T3 chain: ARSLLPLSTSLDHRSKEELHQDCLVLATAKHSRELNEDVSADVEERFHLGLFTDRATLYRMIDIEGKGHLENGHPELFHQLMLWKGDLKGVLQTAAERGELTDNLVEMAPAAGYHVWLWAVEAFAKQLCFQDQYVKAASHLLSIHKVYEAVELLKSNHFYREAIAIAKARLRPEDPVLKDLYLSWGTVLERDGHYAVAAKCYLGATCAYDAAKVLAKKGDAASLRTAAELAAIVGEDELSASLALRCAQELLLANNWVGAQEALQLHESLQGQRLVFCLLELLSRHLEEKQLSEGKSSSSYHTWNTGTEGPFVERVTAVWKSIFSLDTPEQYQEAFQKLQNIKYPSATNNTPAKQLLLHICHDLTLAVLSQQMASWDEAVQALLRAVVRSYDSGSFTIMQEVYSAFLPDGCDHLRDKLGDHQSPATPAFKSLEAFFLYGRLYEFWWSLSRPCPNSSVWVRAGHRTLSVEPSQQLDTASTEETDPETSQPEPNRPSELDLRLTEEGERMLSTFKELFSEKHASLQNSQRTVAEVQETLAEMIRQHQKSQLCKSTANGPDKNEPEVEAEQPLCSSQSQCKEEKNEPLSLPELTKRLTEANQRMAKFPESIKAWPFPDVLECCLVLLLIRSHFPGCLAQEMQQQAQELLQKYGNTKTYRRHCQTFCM
The data set can be described thus: co-IP. Particulars: remark: other sources report otherwise.

B1: Gemin5 TPR-like dimerization domain R1016C (domain or fragment, human, UniProt Q8TEQ6 845-1097, looked up)
chain: ARSLLPLSTSLDHRSKEELHQDCLVLATAKHSRELNEDVSADVEERFHLGLFTDRATLYRMIDIEGKGHLENGHPELFHQLMLWKGDLKGVLQTAAERGELTDNLVAMAPAAGYHVWLWAVEAFAKQLCFQDQYVKAASHLLSIHKVYEAVELLKSNHFYREAIAIAKARLCPEDPVLKDLYLSWGTVLERDGHYAVAAKCYLGATCAYDAAKVLAKKGDAASLRTAAELAAIVGEDELSASLALRCAQELLL
In the case of B1, the “stoichiometry N” value in the data set “SEC-MALS” worked out at 2.

B2: Gemin5 TPR-like dimerization domain D1019E (domain or fragment, human, UniProt Q8TEQ6 845-1097, looked up)
chain: ARSLLPLSTSLDHRSKEELHQDCLVLATAKHSRELNEDVSADVEERFHLGLFTDRATLYRMIDIEGKGHLENGHPELFHQLMLWKGDLKGVLQTAAERGELTDNLVAMAPAAGYHVWLWAVEAFAKQLCFQDQYVKAASHLLSIHKVYEAVELLKSNHFYREAIAIAKARLRPEEPVLKDLYLSWGTVLERDGHYAVAAKCYLGATCAYDAAKVLAKKGDAASLRTAAELAAIVGEDELSASLALRCAQELLL
On to B2, for which, in “SEC-MALS”, the “stoichiometry N” value worked out at 2.

B3: Gemin5 endogenous protein (natural protein, human (endogenous in HEK293), UniProt Q8TEQ6 1-1508, looked up)
chain: MGQEPRTLPPSPNWYCARCSDAVPGGLFGFAARTSVFLVRVGPGAGESPGTPPFRVIGELVGHTERVSGFTFSHHPGQYNLCATSSDDGTVKIWDVETKTVVTEHALHQHTISTLHWSPRVKDLIVSGDEKGVVFCYWFNRNDSQHLFIEPRTIFCLTCSPHHEDLVAIGYKDGIVVIIDISKKGEVIHRLRGHDDEIHSIAWCPLPGEDCLSINQEETSEEAEITNGNAVAQAPVTKGCYLATGSKDQTIRIWSCSRGRGVMILKLPFLKRRGGGIDPTVKERLWLTLHWPSNQPTQLVSSCFGGELLQWDLTQSWRRKYTLFSASSEGQNHSRIVFNLCPLQTEDDKQLLLSTSMDRDVKCWDIATLECSWTLPSLGGFAYSLAFSSVDIGSLAIGVGDGMIRVWNTLSIKNNYDVKNFWQGVKSKVTALCWHPTKEGCLAFGTDDGKVGLYDTYSNKPPQISSTYHKKTVYTLAWGPPVPPMSLGGEGDRPSLALYSCGGEGIVLQHNPWKLSGEAFDINKLIRDTNSIKYKLPVHTEISWKADGKIMALGNEDGSIEIFQIPNLKLICTIQQHHKLVNTISWHHEHGSQPELSYLMASGSNNAVIYVHNLKTVIESSPESPVTITEPYRTLSGHTAKITSVAWSPHHDGRLVSASYDGTAQVWDALREEPLCNFRGHRGRLLCVAWSPLDPDCIYSGADDFCVHKWLTSMQDHSRPPQGKKSIELEKKRLSQPKAKPKKKKKPTLRTPVKLESIDGNEEESMKENSGPVENGVSDQEGEEQAREPELPCGLAPAVSREPVICTPVSSGFEKSKVTINNKVILLKKEPPKEKPETLIKKRKARSLLPLSTSLDHRSKEELHQDCLVLATAKHSRELNEDVSADVEERFHLGLFTDRATLYRMIDIEGKGHLENGHPELFHQLMLWKGDLKGVLQTAAERGELTDNLVAMAPAAGYHVWLWAVEAFAKQLCFQDQYVKAASHLLSIHKVYEAVELLKSNHFYREAIAIAKARLRPEDPVLKDLYLSWGTVLERDGHYAVAAKCYLGATCAYDAAKVLAKKGDAASLRTAAELAAIVGEDELSASLALRCAQELLLANNWVGAQEALQLHESLQGQRLVFCLLELLSRHLEEKQLSEGKSSSSYHTWNTGTEGPFVERVTAVWKSIFSLDTPEQYQEAFQKLQNIKYPSATNNTPAKQLLLHICHDLTLAVLSQQMASWDEAVQALLRAVVRSYDSGSFTIMQEVYSAFLPDGCDHLRDKLGDHQSPATPAFKSLEAFFLYGRLYEFWWSLSRPCPNSSVWVRAGHRTLSVEPSQQLDTASTEETDPETSQPEPNRPSELDLRLTEEGERMLSTFKELFSEKHASLQNSQRTVAEVQETLAEMIRQHQKSQLCKSTANGPDKNEPEVEAEQPLCSSQSQCKEEKNEPLSLPELTKRLTEANQRMAKFPESIKAWPFPDVLECCLVLLLIRSHFPGCLAQEMQQQAQELLQKYGNTKTYRRHCQTFCM
B3: the “intensity of co-IP relative to the WT protein” value with G5_(845-1508)-R1016C-TAP was 58 % relative to the WT protein; in the data set with G5_(845-1508)-D1019E-TAP, 62 % relative to the WT protein. The fold by which the recruitment of Gemin5 by WT exceeds that by this mutant in data set [1] was 10 fold.

The term stoichiometry N denotes a count of units in the complex or per binding partner.

For the origin of these results see doi:10.1101/2022.01.25.477707 (bioRxiv, 2022).
